How the values were obtained:
[1] = target: T1, chimeric Flt-3 receptor (human Flt-3 extracellular domain / mouse G-CSF receptor) in Ba/F3 cell line FLG (Homo sapiens, UniProt P36888); experiment: Growth response of chimeric Flt-3 receptor-expressing Ba/F3 cell line FLG (WST-8); type: cell-based; details: 74 hours culture, WST-8 absorbance
T1 construct: from the 1st to the 541st amino acid residues; expressed in transfected cells; host or cells: mouse Ba/F3 cells, clone FLG#102 = FLG
Source text: A chimeric receptor cDNA was constructed by linking cDNA fragments encoding the extracellular domain (from the 1st to the 541st amino acid residues; Small, D. et al. (1994) Proc. Natl. Acad. Sci. USA. 91, 459-463) of human Flt-3, and the transmembrane and intracellular domains (from the 602nd to the 813th amino acid residues; Fukunaga, R. et al. (1990) Cell 61, 341-350) of mouse G-CSF receptor. The cDNA was inserted downstream of the EF1α promoter of the mammalian expression vector pCOS2 to construct chimeric receptor-expression vector FLG/pCOS2. The FLG/pCOS2 was linearized with Hpa I (Takara Shuzo), extracted with phenol and chloroform, and purified by ethanol precipitation.
(§1) The linearized expression gene vector was introduced into mouse Ba/F3 cells using an electroporation apparatus (Gene Pulser: Bio Rad). […]
(§2) The cells were washed twice with Media A, and were suspended in Media A to give a cell density of 5×10^4 cells/mL. […] After the culture, 10 μl/well WST-8 reagent (Cell Count Reagent SF; Nacalai Tesque) was added, and pre-reaction absorbance at a measurement wavelength of 450 nm and a control wavelength of 655 nm was measured using microplate reader (Model 3550, Bio Rad). The plate was incubated for two hours in a CO2 incubator (CO2 concentration, 5%; humidity, 99.9%), and post-reaction absorbance was measured as above.

[2] = tested on: mixed culture of cell lines GFG, EPG, TPG and parental Ba/F3; experiment: Cytokine responses in mixed and individual cell cultures (Example 2); type: cell-based, mouse; details: mixed culture of four cell lines (each 4×10^3 cells/well), similar in individual cultures, 72 hours, WST-8; listed as hG-CSF
Procedure: Mixed culture of the cell lines GFG, EPG, and TPG, which express human G-CSF, EPO, and TPO chimeric receptors, respectively, and their parental cell line Ba/F3 was conducted and their response to various cytokines was examined.
The cells were washed twice with RPMI1640 media containing 2% fetal bovine serum, and then were suspended in RPMI1640 containing 10% fetal bovine serum. The four cell lines were mixed by adjusting each of the cell lines to 4×10^4 cells/mL (16×10^4 cells/mL in total) for the mixed culture, and, for individual cultures, cells were prepared at 4×10^4 cells/mL. 100 μL each of the cells were independently seeded on a 96-well microtiter plate (flat bottom, Falcon). After adding 100 μL/well each of appropriately diluted cytokines, the cultures were cultured for 72 hours in a CO2 incubator (5% CO2 concentration). After the culture, 10 μL/well WST-8 reagent (Cell Count Reagent SF; Nacalai Tesque) was added, and pre-reaction absorbance at a measurement wavelength of 450 nm and a control wavelength of 655 nm was measured using a microplate reader (Model 3550, Bio Rad). The plate was incubated for two hours in a CO2 incubator (CO2 concentration, 5%), and post-reaction absorbance was measured as above. Data were graphed out taking the cytokine concentrations on the horizontal axis and the amount of changes in absorbance after 2-hour incubation on the vertical axis (FIGS. 18, 19, and 20).

[3] = Titer of human EPO and G-CSF prepared from recombinant CHO cells
[4] = target: T2, chimeric G-CSF receptor (human G-CSF receptor extracellular domain / mouse G-CSF receptor) in Ba/F3 cell line GFG (UniProt P40223+Q99062); experiment: Growth response of chimeric G-CSF receptor-expressing Ba/F3 cell line GFG (WST-8); type: cell-based; details: 70 hours culture, WST-8 absorbance
T2 construct: the extracellular domain (from the −23rd to the 604th amino acid residues); expressed in transfected cells; host or cells: mouse Ba/F3 cells, clone GFG#342 = GFG
T2 sequence (Q99062+P40223 with tags, fused parts or gaps): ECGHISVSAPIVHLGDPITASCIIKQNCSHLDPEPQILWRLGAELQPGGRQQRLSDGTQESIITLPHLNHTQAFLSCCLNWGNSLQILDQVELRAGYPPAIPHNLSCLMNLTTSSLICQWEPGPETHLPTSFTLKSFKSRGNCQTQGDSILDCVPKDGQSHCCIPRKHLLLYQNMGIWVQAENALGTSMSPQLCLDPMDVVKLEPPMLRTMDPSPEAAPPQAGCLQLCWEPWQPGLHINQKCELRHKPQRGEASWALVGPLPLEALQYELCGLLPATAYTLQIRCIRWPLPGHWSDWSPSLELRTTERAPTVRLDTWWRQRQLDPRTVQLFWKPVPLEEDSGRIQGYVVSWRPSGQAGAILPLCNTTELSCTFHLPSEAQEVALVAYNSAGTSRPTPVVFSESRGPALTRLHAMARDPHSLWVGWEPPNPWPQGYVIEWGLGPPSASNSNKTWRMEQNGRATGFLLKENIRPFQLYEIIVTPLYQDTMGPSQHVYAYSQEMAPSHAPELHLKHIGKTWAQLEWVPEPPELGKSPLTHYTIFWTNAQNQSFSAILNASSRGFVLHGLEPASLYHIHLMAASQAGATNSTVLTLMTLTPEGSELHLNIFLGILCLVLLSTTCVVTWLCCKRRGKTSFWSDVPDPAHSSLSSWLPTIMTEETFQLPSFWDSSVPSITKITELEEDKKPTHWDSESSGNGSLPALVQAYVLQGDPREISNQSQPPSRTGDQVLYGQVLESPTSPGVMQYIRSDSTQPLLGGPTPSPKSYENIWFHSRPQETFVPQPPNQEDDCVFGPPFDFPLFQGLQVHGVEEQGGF
Source text: A chimeric receptor cDNA was constructed by linking cDNA fragments encoding the extracellular domain (from the −23rd to the 604th amino acid residues; Fukunaga, R. et al. (1990) Proc. Natl. Acad. Sci. USA 87, 8702-8706) of human G-CSF receptor, and the transmembrane and intracellular domains (from the 602nd to the 813th amino acid residues; Fukunaga, R. et al. (1990) Cell 61, 341-350) of mouse G-CSF receptor. The cDNA was inserted downstream of the HEF1α promoter of the mammalian expression vector pCOS-G to construct chimeric receptor-expression vector GG/pCOS-G. GG/pCOS-G was linearized with Pvu I (Takara Shuzo), extracted with phenol and chloroform, and purified by ethanol precipitation.
as §1
as §2, with “5%),” for “5%; humidity, 99.9%),”

| Molecule | concentration at which an evident growth reaction was observed [1] | concentration where the response was observed to start [2] | titer [3] | concentration at which an evident growth reaction was observed [4] |
| --- | --- | --- | --- | --- |
| human Flt-3 ligand: human Flt-3 ligand (Genzyme) (protein, UniProt P49771 27-235, looked up) Fms-related tyrosine kinase 3 …: TQDCSFQHSPISSDFAVKIRELSDYLLQDYPVTVASNLQDEELCGGLWRLVLAQRWMERLKTVAGSKMQGLLERVNTEIHFVTKCAFQPPPSCLRFVQTNISRLLQETSEQLVALKPWITRQNFSRCLELQCQPDSSTLPPPWSPRPLEATAPTAPQPPLLLLLLLPVGLLLLAAAWCLHWQRTRRRTPRPGEQVPPVPSPQDLLLVEH | ≥ 300 pg/mL |  |  |  |
| granulocyte-colony stimulating factor (protein, UniProt P09919 31-207, looked up, human G-CSF prepared from recombinant CHO cells) Granulocyte …: TPLGPASSLPQSFLLKCLEQVRKIQGDGAALQEKLVSECATYKLCHPEELVLLGHSLGIPWAPLSSCPSQALQLAGCLSQLHSGLFLYQGLLQALEGISPELGPTLDTLQLDVADFATTIWQQMEELGMAPALQPTQGAMPAFASAFQRRAGGVLVASHLQSFLEVSYRVLRHLAQP |  | 2 pg/mL | 1.2×10^8 IU/mg | ≥ 10 pg/mL |

Reference: US7732133B2, “Screening methods for biologically active ligands” (Chugai Seiyaku Kabushiki Kaisha, priority 2000, dated 2010)
